Several values for one entry are separate records, joined by “and”; a condition that tells them apart may be missing. Equal values may be shown once.
B1: Lysozyme C, P61626 (parent)
chain: MKALIVLGLVLLSVTVQGKVFERCELARTLKRLGMDGYRGISLANWMCLAKWESGYNTRATNYNAGDRSTDYGIFQINSRYWCNDGKTPGAVNACHLSCSALLQDNIADAVACAKRVVRDPQGIRAWVAWRNRCQNRDVRQYVQGCGV

Variants of: B1
Conditions: Homo sapiens; pH 2.7; 64.9 °C; Thermal; DSC; glycine-HCl 0.05 M; reversible: yes; structure 1LZ1; whole UniProt chain shown

Variant	ddG of mutation (higher = less stable) [kcal/mol]
V128F	0.05
V92I	-0.45
V92F	0.29
V20L	0.05
V20F	0.86

Same assay, conditions: Homo sapiens; pH 2.7; Thermal; DSC; glycine-HCl 0.05 M; reversible: yes; structure 1LZ1; whole UniProt chain shown

Variant	Tm	change of melting temperature, mutant - wild type (higher = more stable) [°C]	heat capacity change of unfolding [kcal/mol/K]	unfolding enthalpy (calorimetric) [kcal/mol]
V128F	64.7 °C and 64.9 °C	-0.2	1.7	101
V92I	66.6 °C and 64.9 °C	1.7	1.2	88.4
V92F	64 °C and 64.9 °C	-0.9	1.34	110
V20L	64.5 °C and 64.7 °C and 64.9 °C	-0.2	1.22	109
V20F	62.2 °C and 64.9 °C	-2.7	1.63	110

Same assay, conditions: Homo sapiens; pH 2.72; Thermal; DSC; glycine-HCl 0.05 M; reversible: yes; structure 1LZ1; whole UniProt chain shown

Variant	Tm [°C]	unfolding enthalpy (calorimetric) [kcal/mol]
V128F	65.1	101

Same assay, conditions: Homo sapiens; pH 2.8; Thermal; DSC; glycine-HCl 0.05 M; reversible: yes; structure 1LZ1; whole UniProt chain shown

Variant	Tm [°C]	unfolding enthalpy (calorimetric) [kcal/mol]
V128F	66.3	103
V92I	68.3	92.5

Same assay, conditions: Homo sapiens; pH 3.04; Thermal; DSC; glycine-HCl 0.05 M; reversible: yes; structure 1LZ1; whole UniProt chain shown

Variant	Tm [°C]	unfolding enthalpy (calorimetric) [kcal/mol]
V128F	70.5	110

Same assay, conditions: Homo sapiens; pH 2.67; Thermal; DSC; glycine-HCl 0.05 M; reversible: yes; structure 1LZ1; whole UniProt chain shown

Variant	Tm [°C]	unfolding enthalpy (calorimetric) [kcal/mol]
V92I	66.1	89.9

Same assay, conditions: Homo sapiens; pH 3; Thermal; DSC; glycine-HCl 0.05 M; reversible: yes; structure 1LZ1; whole UniProt chain shown

Variant	Tm [°C]	unfolding enthalpy (calorimetric) [kcal/mol]
V92I	71.7	96.6

Same assay, conditions: Homo sapiens; pH 2.68; Thermal; DSC; glycine-HCl 0.05 M; reversible: yes; structure 1LZ1; whole UniProt chain shown

Variant	Tm [°C]	unfolding enthalpy (calorimetric) [kcal/mol]
V92F	63.6	108
V20F	62	106

Same assay, conditions: Homo sapiens; pH 2.84; Thermal; DSC; glycine-HCl 0.05 M; reversible: yes; structure 1LZ1; whole UniProt chain shown

Variant	Tm [°C]	unfolding enthalpy (calorimetric) [kcal/mol]
V92F	66.3	112

Same assay, conditions: Homo sapiens; pH 3.1; Thermal; DSC; glycine-HCl 0.05 M; reversible: yes; structure 1LZ1; whole UniProt chain shown

Variant	Tm [°C]	unfolding enthalpy (calorimetric) [kcal/mol]
V92F	70.5	117

Same assay, conditions: Homo sapiens; pH 3.23; Thermal; DSC; glycine-HCl 0.05 M; reversible: yes; structure 1LZ1; whole UniProt chain shown

Variant	Tm [°C]	unfolding enthalpy (calorimetric) [kcal/mol]
V92F	72.4	120

Same assay, conditions: Homo sapiens; pH 3.4; Thermal; DSC; glycine-HCl 0.05 M; reversible: yes; structure 1LZ1; whole UniProt chain shown

Variant	Tm [°C]	unfolding enthalpy (calorimetric) [kcal/mol]
V92F	75.6	124

Same assay, conditions: Homo sapiens; pH 3.05; Thermal; DSC; glycine-HCl 0.05 M; reversible: yes; structure 1LZ1; whole UniProt chain shown

Variant	Tm [°C]	unfolding enthalpy (calorimetric) [kcal/mol]
V20L	70.4	116

Same assay, conditions: Homo sapiens; pH 2.87; Thermal; DSC; glycine-HCl 0.05 M; reversible: yes; structure 1LZ1; whole UniProt chain shown

Variant	Tm [°C]	unfolding enthalpy (calorimetric) [kcal/mol]
V20F	65	110

Same assay, conditions: Homo sapiens; pH 3.09; Thermal; DSC; glycine-HCl 0.05 M; reversible: yes; structure 1LZ1; whole UniProt chain shown

Variant	Tm [°C]	unfolding enthalpy (calorimetric) [kcal/mol]
V20F	68.6	116

Same assay, conditions: Homo sapiens; pH 3.22; Thermal; DSC; glycine-HCl 0.05 M; reversible: yes; structure 1LZ1; whole UniProt chain shown

Variant	Tm [°C]	unfolding enthalpy (calorimetric) [kcal/mol]
V20F	71.2	121
